Patent US20100233095A1 (ADLYFE, published 2010)
pyrene = pyrene (fluorescent label); PBA = not defined here

Columns and labels:
[1] = target: T1, Aβ42 oligomer (soluble Aβ42 target protein oligomers) (UniProt P05067 672-713); test: pyrene fluorescence of di-pyrene Peptide 45 with 0, 0.03, 0.1 and 0.3 µM Aβ42 oligomer; free peptide 9:1
T1 construct: domain: Aβ1-42; Soluble oligomeric aggregate; also called synthetic Aβ42 oligomer

[2] = target: T2, Aβ42 Fiber (insoluble Aβ42 target protein fibers) (UniProt P05067 672-713); test: centrifugation of insoluble fibers with soluble probe, SDS-PAGE of the pellet, 40% TFE
T2 construct: domain: Aβ1-42; Insoluble fibrillar aggregate of Aβ42; also called Aβ 1-42 fiber; Aβ42 fibers
Description: Aβ42 Fiber (target protein) and peptide probe (SEQ ID NO:1) are incubated for 3 hours in the presence of increasing amounts of trifluoroethanol (TFE). The samples are centrifuged at 17,000×g for 30 minutes, and the pellets are denatured in sample buffer and analyzed by SDS-PAGE. Reference samples (Input) are shown for comparison. In this example, binding of target protein and peptide probe is clearly observed at the 40% TFE condition (compare left and right panels at 40% TFE, where the “peptide” band appears in the left panel but not the right panel).

[3] = target: T3, biotinylated Aβ 42 oligomer (UniProt P05067 672-713, biotin (site not stated)); test: streptavidin bead capture of biotinylated oligomer, SDS-PAGE
T3 construct: domain: Aβ1-42; Captured on streptavidin-coated magnetic beads; also called biotin-labeled soluble Aβ42 target protein oligomers; synthetic biotinylated oligomer
Description: Labeled peptide probe (SEQ ID NO:1, 2 μM) and biotinylated target protein (Aβ 42 oligomers, 2 μM) are incubated in PBS for 30 minutes. The mixture is then subjected to a capture step using magnetic beads coated with streptavidin. The beads are washed with PBS to remove unbound material and the captured material is analyzed by SDS-PAGE.

[4] = target: T1, Aβ42 oligomer (soluble Aβ42 target …); test: G25 size exclusion spin column, fluorescence of the eluant; 2 µM probe, 2 µM oligomer
Description: Labeled peptide probe (SEQ ID NO:1, 2 μM) and target protein (Aβ oligomers, 2 μM) are incubated together for 90 minutes in Hepes buffer (10 mM, pH 7.0) and then loaded onto a G25 size exclusion column, which has a 5000 Da molecular weight cutoff. The column is subjected to centrifugation at 735×g for 2 minutes. Eluants and column material are analyzed by a TECAN fluorimeter. This method is illustrated in FIG. 14A. Eluant also may be analyzed by SDS-PAGE (not shown).

[5] = target: T1, Aβ42 oligomer (soluble Aβ42 target …); test: pyrene fluorescence, aqueous assay; transition from excimer to self-fluorescence
[6] = target: T4, streptavidin (on magnetic dynabeads) (UniProt P22629 37-163, limits assumed); test: streptavidin bead pull-down (protocol B) without biotinylated oligomer, SDS-PAGE
T4 construct: Capture reagent; also called streptavidin bead; magnetic streptavidin beads
Description: In an alternative assay with Peptide 22 (protocol B, illustrated in FIG. 5A), […] biotinylated Aβ 42 oligomer was incubated with pre-washed streptavidin dynabeads at room temperature for 30 minutes. The complex was then washed two times with PBS buffer, and resuspended in PBS buffer. Equal volumes of bound oligomer and 4 μM labeled peptide probe (SEQ ID NO:2) were then combined, and incubated for 30 minutes at room temperature. Unbound material was then washed away with three PBS washes, followed by the collection of the bead complexes by magnet. The complex was then resuspended in 1×LDS buffer, boiled for 10 minutes, and loaded on 10% Bis-Tris gels.

[7] = target: T5, bovine serum albumin (control substrate) (bovine, UniProt P02769 25-607); test: pyrene monomer fluorescence of di-pyrene Peptide 22 over time, in water, substrate 0.03-0.3 uM
T5 construct: also called BSA
Description: FIG. 12 illustrates the specificity of Peptide 22 (SEQ ID NO:2) for soluble Aβ oligomers. The first two panels show the dose-dependent increase in pyrene monomer signal when Peptide 22 is incubated with soluble Aβ oligomers prepared by two different methods. The next two panels show no change in fluorescence when Peptide 22 is incubated with Aβ40 monomers and Aβ42 monomers. […] The last two panels show no change in fluorescence when Peptide 22 is incubated with control solutions (BSA or Anhydrase). […] (dotted line=0.3 uM substrate; dashed line=0.1 uM; dashed/dot line=0.03 uM; solid line=p22 alone).
Peptide 22 (100 nM) is incubated in water for 15 hours at room temperature with equimolar concentrations ([…]) of several potential A0 substrates: Aβ42 oligomer (type 1); Aβ42 oligomer (type 2); Aβ 1-42 monomer; Aβ 1-40 monomer; Aβ 1-42 fiber; Aβ 1-40 fiber; bovine serum albumin (control substrate); and carbonic anhydrase (control substrate).

T1 sequence (P05067 672-713 limits assumed): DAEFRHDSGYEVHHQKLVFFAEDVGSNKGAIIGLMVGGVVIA
T4 sequence (P22629 37-163 limits assumed): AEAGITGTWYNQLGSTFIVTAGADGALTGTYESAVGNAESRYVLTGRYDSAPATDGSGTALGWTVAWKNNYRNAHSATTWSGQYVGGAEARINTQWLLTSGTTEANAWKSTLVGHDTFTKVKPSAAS
T3 sequence (P05067 672-713 limits assumed): as the sequence (P05067 672-713 limits assumed) above
T2 sequence (P05067 672-713 limits assumed): as above
T5 sequence (P02769 25-607 limits assumed): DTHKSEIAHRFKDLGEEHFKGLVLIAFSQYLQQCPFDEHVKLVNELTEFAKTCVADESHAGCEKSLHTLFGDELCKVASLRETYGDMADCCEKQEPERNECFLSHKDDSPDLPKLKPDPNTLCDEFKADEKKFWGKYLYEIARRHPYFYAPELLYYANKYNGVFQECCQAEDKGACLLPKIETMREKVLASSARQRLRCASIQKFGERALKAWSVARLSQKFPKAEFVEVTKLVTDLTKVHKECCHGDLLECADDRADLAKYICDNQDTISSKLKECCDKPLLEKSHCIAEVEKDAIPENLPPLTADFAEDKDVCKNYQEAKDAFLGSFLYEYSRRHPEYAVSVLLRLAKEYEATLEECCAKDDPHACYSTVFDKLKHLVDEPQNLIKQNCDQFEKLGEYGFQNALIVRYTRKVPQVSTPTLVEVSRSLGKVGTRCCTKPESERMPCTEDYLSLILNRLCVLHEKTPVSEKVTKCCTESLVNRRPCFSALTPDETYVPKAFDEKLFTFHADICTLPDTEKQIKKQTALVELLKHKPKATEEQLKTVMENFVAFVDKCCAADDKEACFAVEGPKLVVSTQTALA

B1: Peptide 45 (SEQ ID NO:4) (peptide)
peptide: pyrene-KAAAKLVFFAEDVGSNKHAIIELMK-NH2
modifications: not fully specified (residue 25)
notes: also called P45
excimer:monomer fluorescence ratio [1]: 20 ratio (x:1)

B2: peptide probe of SEQ ID NO:1 (WT reference sequence, Aβ protein residues 16-35 with added C-terminal Lys) (peptide)
peptide: {PBA}-KLVFFAEDVGSNKGAIIGLMK(PBA)-NH2
modifications: reading uncertain; also: labels are the default, some assays say only 'labeled', centrifugation assay may use unlabeled peptide
notes: Synthetic probe; also called wildtype
binding result [2]: binds
binding result [3]: binds
binding result [4]: binds

B3: Peptide 22 variation 1 (SEQ ID NO:14) (peptide)
peptide: pyrene-KLVFFAEDVGSNKRAIIELMK(pyrene)-NH2
notes: also called P22 v.1; Peptide 22 var
binding result [5]: binds

B4: Peptide 22 variation 2 (SEQ ID NO:15) (peptide)
peptide: pyrene-KLVFFAEDVGSNKKAIIELMK(pyrene)-NH2
notes: also called P22 v.2; Peptide 22 var
binding result [5]: binds

B5: Peptide 22 (SEQ ID NO:2) (peptide)
peptide: pyrene-KLVFFAEDVGSNKHAIIELMK(pyrene)-NH2
notes: Designed variant of the Aβ 16-35 probe with a salt bridge; also called P22; p22
binding result [6]: no binding (tested: 4 µM)
binding result [7]: no binding (tested: 0.3 uM)
